{
  "source": "patent US20210395344A1",
  "binders": {"B1": {"name": "1-30 (antibody, V domains shown)", "VH": "EVQLLESGGGLVQPGGSLRLSCAASGFTFSSYAMTWVRQAPGKGLEWVSAISGSGGSTFYADSVKGRFTISRDNSKNTLYLQMNSLRAEDTAVYYCTRPPYGDYGDYWGQGTLVTVSS", "VL": "QSALTQPASVSGSPGQSITISCTGTSRDVGSYNLVSWYQQHPGKAPKLMIYEGTKRPSGVSNRFSGSKSGNTASLTISGLQAEDEADYYCCSYAGSRTPVVFGGGTKLTVL"}, "B2": {"name": "1-31 (antibody, V domains shown)", "VH": "B1 VH with T35N", "VL": "B1 VL with R27S, S31K, T54S, K55Q"}, "B3": {"name": "1-3 (antibody, V domains shown)", "VH": "EVQLLESGGGLVQPGGSLRLSCAASGFTFSSQAMSWVRQAPGKGLEWVSAISGSGGGTYYADSVKGRFTISRDNSKNTLYLQMNSLRAEDTAVYYCAKDRRFGEFDPWGQGTLVTVSS", "VL": "B1 VL with T25I, R27S, R97S, T98S, P99F"}, "B4": {"name": "1-4 (antibody, V domains shown)", "VH": "B3 VH", "VL": "B1 VL with R27S, S31T, T54S, K55Q, R97S, T98S, P99F"}, "B5": {"name": "1-28 (antibody, V domains shown)", "VH": "EVQLLESGGGLVQPGGSLRLSCAASGFTFSSYGMSWVRQAPGKGLEWVSAISGSGGGTYYADSVKGRFTISRDNSKNTLYLQMNSLRAEDTAVYYCASSSSWQFDYWGQGTLVTVSS", "VL": "B1 VL with R27S, D28G, T54S, K55Q, R97S, P99H, V100Y"}, "B6": {"name": "1-32 (antibody, V domains shown)", "VH": "B1 VH with T35Y", "VL": "QSALTQPASVSGSPGQSITISCTGTSSDVGGYNLVSWYQQHPGKAPKLMIYEGNKRPSGVSNRFSGSKSGNTASLTISGLQAEDEADYYCCSYAGSSTFPVVFGGGTKLTVL"}},
  "note": "Changes are numbered by the printed parent chain.",
  "data": [
    {"biological_target": "SARS-CoV-2 S protein trimer (SARS-CoV-2), P0DTC2", "test": "ELISA on coated S trimer; quantity not named", "settings": "remark: other sources report otherwise", "units": {"S Trimer": "nM"}, "values": [
      {"binder": "B1", "S Trimer": 4.02},
      {"binder": "B2", "S Trimer": 0.8}
    ]},
    {"biological_target": "SARS-CoV-2 S protein trimer (SARS-CoV-2), P0DTC2", "test": "column DC/S-T (format not explained)", "settings": "remark: other sources report otherwise", "units": {"Kd": "nM"}, "values": [
      {"binder": "B1", "Kd": 476000},
      {"binder": "B3", "Kd": 5310},
      {"binder": "B4", "Kd": 129},
      {"binder": "B5", "Kd": 96.6}
    ]},
    {"biological_target": "SARS-CoV-2 S protein trimer (SARS-CoV-2), P0DTC2", "test": "column Fc/S-T (format not explained)", "settings": "remark: other sources report otherwise", "units": {"Kd": "nM"}, "values": [
      {"binder": "B3", "Kd": 10},
      {"binder": "B4", "Kd": 12.3},
      {"binder": "B5", "Kd": 8.6}
    ]},
    {"biological_target": "SARS-CoV-2 S protein trimer (SARS-CoV-2), P0DTC2", "test": "column DB/S-T (format not explained)", "settings": "remark: other sources report otherwise", "units": {"Kd": "nM"}, "values": [
      {"binder": "B3", "Kd": 423},
      {"binder": "B4", "Kd": 6.6},
      {"binder": "B5", "Kd": 13.4}
    ]},
    {"biological_target": "COVID S1 RBD Fc fusion (Antigen 1) (SARS-CoV-2), P0DTC2", "test": "phage ELISA", "settings": "remark: other sources report otherwise", "values": [
      {"binder": "B1", "ELISA fold over background (fold over background)": 1.7},
      {"binder": "B3", "ELISA fold over background (fold over background)": 1.8},
      {"binder": "B4", "ELISA fold over background (fold over background)": 1.4},
      {"binder": "B5", "ELISA fold over background (fold over background)": 1.1},
      {"binder": "B2", "ELISA fold over background (fold over background)": 1.3},
      {"binder": "B6", "ELISA fold over background (fold over background)": 1.5}
    ]}
  ]
}
